Experiment [1] deals with T1, RSV postfusion F (postF), subtype B (respiratory syncytial virus subtype B).
T1 construct: also called Postfusion subtype B
The experiment in a line: BLI, IgG.

For experiment [2], the target named is T2, RSV postfusion F (postF), subtype A (respiratory syncytial virus subtype A, UniProt P03420 26-513).
T2 construct: also called Postfusion subtype A; F deltaFP
The experiment in a line: BLI.

Experiment [3] deals with T2, RSV postfusion F (postF), subtype A. The experiment is described as follows: BLI, IgG. In general terms: Biolayer interferometry detects binding as a change in optical thickness at a sensor tip.
Experiment [4] has as its target T3, RSV prefusion F (preF), subtype B (respiratory syncytial virus subtype B).
T3 construct: also called Prefusion subtype B
The experiment in a line: BLI, IgG.

Experiment [5] addresses RSV F on RSV subtype A virus (mKate-RSV A2) (respiratory syncytial virus A2, UniProt P03420 26-574). The experiment in a line: cell-based or functional assay.

B1: ADI-24846 (antibody, V domains shown)
VH: EVQLLESGGGLVKPGGSLRLSCAASGFTFSSYSMNWVRQAPGKGLEWVSSISSSSSYIYYADSVKGRFTISRDNAKNSLYLQMNSLRAEDTAVYYCARDDGILWLDYWGQGTLVTVSS
VL: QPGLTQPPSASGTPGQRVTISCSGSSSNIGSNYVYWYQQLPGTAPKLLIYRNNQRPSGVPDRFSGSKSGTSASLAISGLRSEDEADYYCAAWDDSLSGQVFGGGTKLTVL
notes: full-length IgG
Usually Kd stands for the free concentration of one partner at which half of the binding sites on the other are occupied at equilibrium, for simple one-to-one binding. Take B1: binding in experiment [1] was put at a Kd of 29.1 nM. In addition, the binding result in experiment [2] is on record as “no binding”.

B2: ADI-14372 (antibody, V domains shown)
VH: QVQLLESGGGLVQPGGSLRLSCAASGFTFSNYAMGWVRQAPGQGLEWVSRISATGGSTHYADSVRGRFTISRDNSKNTLYLQMNSLKAEDTAVYYCAKDRGYSRNLTPDYWGQGTLVTVSS
VL: ETTLTQSPSSLSASVGDRVTITCRASQGITNDLGWYQKKPGKAPKLLIYVASSLQSGVPSRFSGSGSGTDFTLTISSLQPEDFATYYCLQDYNYPITFGQGTKVDIK
notes: full-length IgG; also called Ab 40
In the case of B2, the Kd in experiment [3] was 0.659 nM; in experiment [1] it was 4.43 nM.

B3: ADI-24825 (antibody, V domains shown)
VH: QVQLVQSGAEVKKPGASVKVSCKASGYTFTSYDINWVRQATGQGLEWMGWMNPNSGNTGYAQKFQGRVTMTRNTSISTAYMELSSLRSEDTAVYYCSSVGGYYYYGMDVWGQGTTVTVSS
VL: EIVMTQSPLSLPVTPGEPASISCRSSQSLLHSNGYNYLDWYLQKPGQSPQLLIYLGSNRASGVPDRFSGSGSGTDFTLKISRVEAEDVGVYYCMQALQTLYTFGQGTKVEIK
notes: full-length IgG
Regarding B3, the Kd in experiment [3] worked out at 30.1 nM; in experiment [1], 26 nM.

B4: ADI-19483 (antibody, V domains shown)
VH: QVQLVQSGAEVKKPGESLKISCKGSGYSFTTYWIGWVRQMPGKGLEWMGIIFPGDSDTRYSPSFQGQVTISADKSISTAYLQWSSLKASDTAMYFCARSAFPFGFDIWGQGTMVTVSS
VL: SYVLTQPHSVSESPGKTVTISCTRSSGSIASNYVQWYQQRPGSSPTTVIYEDHQRPSGVPDRFSGSIDSSSNSASLTISGLQTEDEADYYCQSYGSGNPWVFGGGTKVTVL
notes: full-length IgG
As for B4, the results for the Kd in experiment [3], in experiment [1] and in experiment [4] were 0.321 nM, 0.153 nM and 1.77 nM, respectively.

B5: ADI-19479 (antibody, V domains shown)
VH: QVQLVQSGAEVKKPGSSVKVSCKASGGTFSSNAINWVRQAPGQGLEWMGGIIPIFGTANYAQKFQGRVTITTDESTSTAYMELSSLRSEDTAVYYCATTFYYGSGADYWGQGTLVTVSS
VL: DIQMTQSPLSLPVTLGQPASISCRSSQSLVYSDGNMYLSWFQQRPGQSPRRLIYKVSNRDSGVPDRFSGSGSGTDFTLKISRVEAEDVGVYYCMQGTHWWTFGQGTKVEIK
notes: full-length IgG
For B5, the values for the Kd in experiment [3] and in experiment [1] were 3.69 nM and 2.69 nM, respectively.

B6: ADI-19505 (antibody, V domains shown)
VH: QVQLVQSGAEVKKPGESLKISCKGSGYSFTNYWIGWVRQMPGKGLEWMGITYPGDSDTRYSPSFQGQVTISADKSISTAHLQWDSLKASDTAMYYCARLRCTGSICYDAFDIWGQGTTVTVSS
VL: SYVLTQPLSVSVALGQTARITCGGNNIGSKNVHWYQQKPGQAPVLVIYRDNNRPSGIPERFSGSNSGNTATLTISRAQAGDEADYYCQVWDSSTGGDVFGAGTKVTVL
notes: full-length IgG
As for B6, the Kd in experiment [3] came to 4.94 nM; in experiment [1], 5.01 nM; in experiment [4], 44.4 nM.

B7: ADI-25467 (antibody, V domains shown)
VH: GVQLVESGPGLVKPSETLSLTCTVSGGSISSYYWSWIRQPPGKGLEWIGYIYYSGSTNYNPSLKSRVTISVDTSKNQFSLKLSSVTAADTAVYYCARGYYYDSSGYYPNDAFDIWGQGTMVTVSS
VL: not shown
notes: full-length IgG
For B7, the Kd was 25.3 nM in experiment [3] and 26.2 nM in experiment [1].

B8: ADI-25575 (antibody, V domains shown)
VH: EVQLVESGAEVKKPGASVKVSCKASGYTFTSYYMHWVRQAPGQGLEWMGIINPSGGSTSYAQKFQGRVTMTRDTSTSTVYMELSSLRSEDTAVYYCARGPYDSSGYCDYWGQGTLVTVSS
VL: SYELTQPPSVSVAPGKTARITCGGNNIGSKSVHWYQQKPGQAPVLVVYDDSDRPSGIPERFSGSNSGNTATLTISRVEAGDEADYYCQVWDSSSDQVFGGGTKLTVL
notes: full-length IgG
In the case of B8, the “Neut IC50 subtype A” value in experiment [5] was determined as 5.64 mg/L. The molecule further had a Kd in experiment [1] of 39.6 nM.

B9: ADI-22763 (antibody, V domains shown)
VH: EVQLVESGGGLIQPGGSLRLSCAASGFTFSTYEMNWVRQAPGKGLEWVSSISTSGSTKDYAGSVKGRFTVSRDNAKNSLYLQMNSLRAEDTAIYYCARVYYYDSSGYYLALFDYWGQGTLVTVSS
VL: EIVLTQSPSSLSASVGDRVTITCRASQSIASYLNWYQQKPGKAPKLLIYAASSLRSGVPSRFSGSGSGTDFTLTISSLQPEDFATYYCQQSYSTPSLTFGGGTKLEIK
notes: full-length IgG
For the molecule B9, the Kd was found to be 0.319 nM in experiment [3], 5.33 nM in experiment [1] and 10.8 nM in experiment [4].

B10: ADI-14379 (antibody, V domains shown)
VH: EVQLLESGGGVVQPGRSLRLSCAASGFTFSSYAMHWVRQAPGKGLEWVAVIGNDGTNKYHADSVKGRFTISRDNSKNTLYLQMNSLRAEDTAVYYCARRRVGIMYSGSYWGGMDVWGQGTTVTVSS
VL: SYELTQPPSVSVSPGQTASITCSGDKLGGKYVSWYQQKPGQSPVLVMYQDTRRPSGIPERLSGSNSGSTATLTISATQAMDEADYYCQAWDITTVHVVFGGGTKLTVL
notes: full-length IgG; also called Ab 47
Consider B10, for which the values for the Kd in experiment [3] and in experiment [1] were 3.29 nM and 2.35 nM, respectively.

B11: ADI-22764 (antibody, V domains shown)
VH: QVQLVESGPGLVRPSGTLSLTCAVSGGSISGKNWWSWVRQPPGKGLEWIGEIDHSGSTNYNPSLKSRVTISVDKSKNQFSLKLSSVTAADTAVYYCARTGLYDSSGYYLYYFNYWGQGTLVTVSS
VL: EIVMTQSPSSLSASVGDRVTISCRASQTIASYVNWYQQRPGKAPNLLIFAASNLQTGVPSRFRGSGSGTVFTLTISSLQPEDFATYYCQQSYSTPRTFGQGTKVDIK
notes: full-length IgG
With B11, the results for the Kd in experiment [3], in experiment [1] and in experiment [4] were 0.334 nM, 1.44 nM and 1.42 nM, respectively.

B12: ADI-22760 (antibody, V domains shown)
VH: EVQLVESGGGLVQPGRSLRLSCVASGFTFDDYAMHWVRQAPGKGLEWVSGINWNSGGIGYADSVKGRFTISRDNTKNSLYLQMNSLRAEDTALYYCAKDGSALMGYGVEVWGQGTTVTVSS
VL: SYELTQPPSASGTPGQRVTISCSGSNSNIGNNYVYWYQQLPGTAPKLLIYRNNQWPSGVPDRFSASKSGTSASLAISGLRSEDEADYYCASWDDSLSALVFGGGTKLTVL
notes: full-length IgG; also called Ab 340
Consider B12, for which the dissociation constant (Kd) in experiment [3] turned out to be 1.19 nM; in experiment [1], 1.25 nM; in experiment [4], 3.07 nM.

B13: ADI-19484 (antibody, V domains shown)
VH: QVQLQESGSGLVKPSQTLSLTCVVSGGSISSGGNSWSWIRQPPGKGLEWIGYIYDSGNTYYNPSLKSRVTISVDRSKNQFSLKVSSVTAADTAVYYCARGAETGTTGWYDPWGQGTLVTVSS
VL: DIRLTQSPSSLSASVGDRVTITCRASQTISSYLNWYQQKPGKAPRLLIYAASSLQSGVPSRFSGSGSGTDFTLTISSLQPEDFATYYCQQSYGTPRTFGQGTKVEIK
notes: full-length IgG
In the case of B13, the Kd in experiment [3] turned out to be 0.369 nM; in experiment [1] it was 0.355 nM; in experiment [4], 8.92 nM.

B14: ADI-24803 (antibody, V domains shown)
VH: EVQLLESGGGLVLPGGSLRLSCAASGFTFSSYAMSWVRQAPGKGLEWVSAISGSGIYTYYADSVKGRFTISRDNSKNTLYLQMSSLRAEDTAVYYCAKGSLGMAYSAFDIWGLGTTVTVSS
VL: DIQLTQSPGTLSLSSGERATLSCRASQSVSSNYLAWYQQKPGQPPRLLIYGASSRATGIPDRFSGSGSGTDFTLTISRLEPEDFAVYYCQQYGSSPLTFGGGTKVDIK
notes: full-length IgG
For B14, the figures for the Kd in experiment [3] and in experiment [1] were 1.2 nM and 0.442 nM, respectively.

B15: ADI-24852 (antibody, V domains shown)
VH: QVQLVESGAEVKKPGASVKVSCKASGYTFTSYAIHWVRQAPGQRLEWMGWINAGNGNTKYSQKFQGRVTITRDTSASTAYMELSSLRSEDTAVYYCASEESGYFDYWGQGTLVTVSS
VL: not shown
notes: full-length IgG; also called Ab 413
Take B15: the Kd was 9.57 nM in experiment [3], 9.17 nM in experiment [1] and 19 nM in experiment [4].

B16: ADI-22772 (antibody, V domains shown)
VH: EVQLVESGGGVVQPGRSLRLSCAASGFTFSSYAMHWVRQAPGKGLEWVAVISYDGSNKYYADSVKGRFTISRDNSKNTLYLQMNSLRAEDTAVYYCARAVEQQLFIWYYGMDVWGQGTTVTVSS
VL: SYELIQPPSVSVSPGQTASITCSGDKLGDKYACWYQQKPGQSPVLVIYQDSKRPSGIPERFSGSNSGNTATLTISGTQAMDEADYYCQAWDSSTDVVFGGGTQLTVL
notes: full-length IgG
With B16, in experiment [1], the affinity, expressed as Kd, was 50.2 nM. In addition, in experiment [2], the binding result is on record as “no binding”.

B17: ADI-19476 (antibody, V domains shown)
VH: QVQLVESGPTLVKPTQTLTLTCTFSGFSLSTSRVGVGWIRQPPGKALEWLALIYWDDDKRYSPSLKSRLTITKDTSKNQVVLTMTNMDPVDTARYYCAHRSTYDILGGYYYFDYWGQGTLVTVSS
VL: QPVLTQPRSVSGSPGQSVTISCTGTSSDVGGYNYVSWFQQHPGKAPKLMIYDVSKRPSGVPNRFSGSKSGNTASLTISGLQAEDEADYFCCSYAGTYEVFGGGTKLTVL
notes: full-length IgG
For the molecule B17, the results for the Kd in experiment [3] and in experiment [1] were 0.801 nM and 0.838 nM, respectively.

B18: ADI-24834 (antibody, V domains shown)
VH: QVQLVQSGGGLVQPGGSLRLSCAASGFTFSSYAMSWVRQAPGKGLEWVSTISGSGGSTYYADSVKGRFTISRDNSKNTLYLQMNSLRAEDTAVYYCATWKRWGSGYYYSYMDVWGKGTTVTVSS
VL: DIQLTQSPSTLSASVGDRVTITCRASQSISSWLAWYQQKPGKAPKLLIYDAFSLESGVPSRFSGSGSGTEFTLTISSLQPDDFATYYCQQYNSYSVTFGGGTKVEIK
notes: full-length IgG
For the molecule B18, the dissociation constant (Kd) in experiment [3] was 0.211 nM; in experiment [1], 0.26 nM; in experiment [4] it was 0.732 nM.

B19: ADI-19486 (antibody, V domains shown)
VH: QVQLQESGPGLVKPSETLSLTCSVSGGSLTSYYWSWIRQPPGKGLEWIGYIYYSGSTNYNPSLKSRLTISVDTSKNQFSLKLSSVTAADTAVYYCARVGGRGVINVFDYWGQGTLVTVSS
VL: QPVLTQPASVSGSPGQSITISCTGTSSDVGGYNYVSWYQQHPGKAPKLMIYEVSNRPSGVSNRFSGSKSGNTASLTISGLQAEDEADYYCDSYRSNSASVVFGGGTKLTVL
notes: full-length IgG
Regarding B19, the results for the Kd in experiment [3] and in experiment [1] were 0.525 nM and 7.55 nM, respectively.

B20: ADI-25587 (antibody, V domains shown)
VH: QVQLVESGGGVVQPGRSLRLSCAASGFTFSSYGMHWVRQAPGKGLEWVAVIWYDGSNKYYADSVKGRFTISRDNSKNTLYLQMNSLRAEDTAVYYCARDSTYSEAFDIWGQGTMVTVSS
VL: QSVLIQPASVSGSPGQSITISCTGTSSDVGGYNYVSWYQQHPGKAPKLMIYDVSNRPSGVSNRFSGSKSGNTASLTISGLQAEDEADYYCSSYTSSSTWVFGGGTKVTVL
notes: full-length IgG
B20: the results for the Kd in experiment [3] and in experiment [1] were 9.23 nM and 7.93 nM, respectively.

Values taken from patent US20260258115A1 (MAPP BIOPHARMACEUTICAL, published 2026).
